According to paper doi:10.1101/2022.09.06.506802 (bioRxiv, 2022):
Several values for one entry are separate records, joined by “and”; a condition that tells them apart may be missing. Equal values may be shown once.

Assays:
[1] = target: Human Talin 1 R1R2-17b (residues 482-786 + additional 17 residues) (human) (UniProt Q9Y490); test: SEC
[2] = target: Human Talin 1 R1R2-WT (residues 482-786) (human, UniProt Q9Y490 482-786); test: NMR titration

In the case of “Vinculin domain 1 (VD1) (from UniProt P18206 1-258) (domain or fragment)”, the stoichiometry N (vinculin per talin) [1] is reported as 2 and 3.

SEDIDQMFSTLLGEMDLLTQSLGVDTC [RIAM peptide (residues 4-30)]: binds [2].
